Target: T1, hSMUG1 WT (Homo sapiens, UniProt Q53HV7 1-270)
T1 sequence: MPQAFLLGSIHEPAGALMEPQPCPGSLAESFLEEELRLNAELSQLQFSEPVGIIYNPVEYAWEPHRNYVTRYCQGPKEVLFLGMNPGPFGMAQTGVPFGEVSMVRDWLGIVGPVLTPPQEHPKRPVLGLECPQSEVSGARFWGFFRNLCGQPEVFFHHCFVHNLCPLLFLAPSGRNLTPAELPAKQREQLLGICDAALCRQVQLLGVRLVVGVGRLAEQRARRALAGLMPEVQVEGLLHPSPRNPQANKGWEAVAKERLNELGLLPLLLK
Test: EMSA

B1: T:A (T141A) (dsDNA)
DNA 1: CATAAAGTGTAAAGCCTGG
DNA 2: CCAGGCTTTACACTTTATG
Does B1 bind?
Result: no binding
